In the nanobody polyreactivity screen of Harvey et al. (2022):

Experiment: yeast display, Sf9 membrane polyspecificity reagent, FACS + sequencing; frameworks hold sequencing errors
Summary of the method: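 After 36–48 hours of galactose induction, yeast (Saccharomyces cerevisiae BJ5465) displaying a synthetic nanobody library were stained at 4 °C for 1 hour with 10% biotinylated, detergent-solubilized Sf9 membrane reagent. Streptavidin microbeads enriched the stained cells before FACS sorting into low and high (top ~1%) gates on anti-HA and streptavidin fluorescence. Each clone's polyreactivity label reflects its gate of origin.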

Row | Sequence | polyreactivity (PSR sort gate)
1 | QVQLVDSGGGLVQAGGSLRLSCAASGSTFSLYAMGWYRQAPGKEREMVASITWGGGSTYADSVKGRFTISRDNAKNTVYLQMNSLKPEDTAVYYCARKFRYRVLYDFAYDHWGLGTQVTVSS | low polyreactivity
2 | QVQLVESGGGLVQAGGSLRLSCAASGITFTVNAMGWYRQAPGKERELVAAITYSGGNTYYADSVKGRFTISRDTAKNTVYLQMNSLKPEDTAVYYCAADNWPWPEKPDKSILYDYWGQGTQVTVSS | low polyreactivity
3 | QVQLVESGGGLVQAGGSLRLSCAASGFTFRRYAMGWYRQAPGKEREFVAAITTRGSNTYYADSVKGRFTISRDNAKNTVYLQMNSLKPEDTAVYYCAASYYPPGHYDYWGQGTQVTVSS | high polyreactivity
4 | QVQLQESGSGLVQAGGSLRLSCAASGAIFPAYLMGWYRQPPGKERELVAGISYGSITYCADSVKGRFNISRDNAKNTVYLQMNSLKPEDTAVYYCAVWRPGGDEYYYWGQGTQVTVSS | low polyreactivity
5 | QVQLVESGGGLVQAGGSLRLSCAASGFTLWLYAMGWYRQAPGKERELVATISYRGDSTYYADSVKGRFTISRDNAKNTVYLQMNSLKPEDTAVYYCARRYTHTGRYYYWGQGTQVTVSS | high polyreactivity
6 | QVQLVESGGGLVQAGGSLRLSCAASGLTFSENAMGWYRQAPGKERELVAAISWSGTTTYYADSVKGRFTISRDNAKNTVYLQMNSLKPEDTAVYYCAADTIFYGYWGQGTQVTVSS | low polyreactivity
7 | QVQLVESGGGLVQAGGSLRLSCAASGSTFPVYVMGWYRPAPGKERELVAAITRSGGSTYYADSVKGRFTISRDNAKNTVYLQMNSLKPEDTAVYYCNKDVWDGYDWPEFDYWGQGTQVTVSS | low polyreactivity
8 | QVQLVESGGGLVQAGGSLRLSCAASGSIFSYYAMGWYRQAPGKERELVAANDWNVDSTYYADSVKGRFTISRDNAKNTVYLQLNSLNPEDTAVYYCNAEVYYFYTRYTWYLYDYWRQGTQVTVSS | low polyreactivity
9 | QVQLVESGGGLVQAGGSLRLSCAASGFTFKRYAMGWYRQAPGKERELVAAISWSGGSTYYADSVKGRFTISRDNAKNTVYLQMNSLKPEDTAVYYCAADGGSTEEYYYWGQGTQVTVST | high polyreactivity
10 | QVQLVESGGGLVQAGGSLRLSCAASGLTFYHVNAMGWYRQAPGKERELVAGISTRGGSTYYADSVKGRFTISRDNAKNTVYLQMNSLKPEDTAVYYCAAYGSAAQKYPYDRPYRYGYWGQGTQVTVSS | high polyreactivity
11 | QVKRVESGGGLVQAGGSLRLSCAASGIMFSPNDMGRFRQGPGKERELVARITTDGSSTYYADSVKGRFTISRDNAKNTVYLQINSLKPEDTAVYSCNADQLWYSLFDYWGQGTLVTVSS | high polyreactivity
12 | QVQLVESGGGLVQAGGSLRLSCAASGRIFKYNAMGWSIQAPGKERELVAAISSGGSTKYADSVKGRFTISRDNAKNTVYLQMNSLKPEDTAVYYCNAVYTPYRRSFYYWGHGTQVTVSS | high polyreactivity
13 | QVQHVESGGGLVQAGGSLRLSCAASGFTFWYYDMGWSRQAPGKERELVAAITNGGRTYYADSVKGRFTISRDNAKNTVYLQMNSLKPEDTAVYYCAAGRWRSGRAEDYWGQGTQVTVSS | high polyreactivity
14 | QVQLVESGGGLVQAGGSLRLSCAASGSTFYHYAMGWYRKAPGKERELVAAISTSGGRTYYADSVKGRFTISRDNAKNTVYLQLNSLKPEDTAVYYCAARPGSWFPSVPSYNYWGQGTQVTVSS | low polyreactivity
15 | QVQLVESGGGLVQAGGSLRLSCAASGRTFVEYAMGWYRQAPGKERELVAAITYSGDDTYYADSVKGRFTISRDNAKNTVYLQMNSLKPEDTAVYYCAKKRSKPISFDYWGQGTQVTVSS | high polyreactivity
16 | QVQLVESGGGLVQAGGSLRLSCAASGRSILLNAMGWYRHAPGKERELVAAISRGGSTYYADSVKGRFTISRDNAKYSVYLQMNSLKPEDTAVYYCAARFWISHTHWDAGDYWGQGTQVTVSS | low polyreactivity
17 | QVQLVESRGGLVQAGGSLRLSCAASGSIFRSNGMGWYRQPPGTERELVAAIRTSGGSTNYADSVKGRFTISRDNAKNTVSLQMNSLKPEDTAVYYCNTRDRGLGMMEYWGQGTQVTVSS | low polyreactivity
18 | QVQLVESGGGLVQAGGSLRLTCAASGNNYLDNAMGWYRQAPGKERELVASITRSGSRTYYADSVKGRFTISRDNAKNTGYFQMNSLKPEDTAVFYCNAGVNERQYDYWGLGTQVTVSS | high polyreactivity
19 | QVQLVESGGGLVQAGGSLRLSCAASGSTFVYYAMGWYRQAPGKEREFVAGISRSGGSTYYADSVKGRFTISRDNAKNTVYLQMNSLIPEDTAVYYCNARGGLPKYGYWGQGTQVTVSS | high polyreactivity
20 | QVQLVESGGGLVQAGGSLRLSCAASGRTFSTYAMGWYRQAPGKERELVARITSSGGSTYYAHSVKGRFTISRDIAKNSVYLQMNCLKPEDTAVYYCAAYAHYAQRYYYWGQGTQVTVSS | high polyreactivity
21 | QVQLVESGGGLVQAGGSLRLSCAASGSTFYINDMGWYRQAPGKERELVASISWRGGSTYADSVKGRFTISRDNAKNTDYLQMNSLKPEDTAVYYCAAEFDVYSHHWITSYDYWGQGTQVTVSS | high polyreactivity
22 | QVQLVESGGGLVQAGGSLRLSCAASGSIFSGNTMGCYRQAPGKERELVAAISGRGSNTYYADSVKGRFTISRDNAKNTVYLQMNSLKPEDTAVYYCAGPWVVRRTAYDYWGQGTQVTVSS | high polyreactivity

Row | Sequence | polyreactivity (PSR sort gate)
23 | QVQLVESGGGLVQAGGSLRLSCAASGITLDRYAMGWYRQAPGKERELVAAISRSTTSTYYADSVKGRFTISRDNAKNTVYLQMNSLKREDTAVYYCATRTYRVDPEYGYWGQGTQVTVSS | high polyreactivity
24 | QVQLVESGGGLVQAGGSLRLSCAASGFIFGYNAMGWDRQAPGKERELVAAITRSGGRTYYADSVKGRFTISRDNAKNTVSLQMNSLKPEDTAVYYCAASRFATYPRWYDYWGQGTQVTVSS | low polyreactivity
25 | QVQLVESAGGLVQAGGSLRLICAASGRIFGGNTRGWYREAPGKERELGASIRSRGGRTNYADSLNGRFTISRDTAKNTVYLQMNSLQPEDTSVYYCDATQIYRFDYWGQGTQVTVSS | low polyreactivity
26 | QGQLVESGGGLVQAGGSLRLSCAASGGIFKAYAMGWYRQAPGQERELVAVITIGGRTTYADSVKGRFTISRDNAKNTVYLQMNSLKPEDTAVYYCAKTNYNWLSTAEHDYWGQGTQVTVSS | low polyreactivity
27 | QVQLVESGGGLVQARGSLRLSCAASLLTFGKNDMGWYRQAPGKEREFVAAITSRGGYTYYADSVKGRFTISRDNAKNTVYSQMNSLKPEDTAVYYCNREYKRPSQRTEHSYWGQGTQVTVSS | low polyreactivity
28 | QVQLVESGGGLVQAGGSLRLSCAASGFTFYYYAMGWYRQAPRKERQLVAAFSWSGGSTYYADSVKGRFTISRDYAKNTVYLQMNRLKPVDTAVYYCNAYPGYRSRSDYGYWGQGTQVTVSS | high polyreactivity
29 | QFQLVESGGGLLQAGGSLRLSCAASGRIFVPYVMGWYRQAPGKERELVASISDTDTSTYYADSVKGRFTISRDIAKNIVYLQMNSLKPEDTAVYYWNVDYWGQGTQVTVSS | low polyreactivity
30 | QVQLVESGGGLVQAGGSLRLSCADSGSTFQANAMGWYRQAPGKERELVATISNDGSTKYADSVKGRFTISRDNAKNTVYLQMNSLKPEDTALYYCAADSARHGRDTYQPEYRNDYWGQGTQVTVSS | low polyreactivity
31 | QVQLVESGGGLVQAGGSLRLSCAASGRTLASNAMGWYRQAPGKERELVAAINRGGSTYYADSVKGRFTISRDNAKNTVYLQMNSLKPEDTAVYSCAVDRYRYPFDYWGQGTQVTVSS | low polyreactivity
32 | QVQHVESGGGLVQAGGSLRLCCAATGNTFGINAMGWYRQAPGKERELDASITGSAGSTYYADSVKGRFTISRDNAKNTVYLQMNSLKPEDTAVYYCNAGARGVMSQPWVIKYYYWGQGTQGTVSS | high polyreactivity
33 | QVQLVESGGGLVQAGGSLRLSCAASGSTFRYNAMGWYRQAPGKEREFVAAITTSGVRTYYADSVKGRFTISRDNAKNTVYLQMTSLKPEDSAVYYCAARANYIFYGMDYWGQGTLVTVSS | high polyreactivity
34 | QVQHVESGGRLVQAGGSLRLSCAASGITFRVYALGWYRQPRGKERELVAAITSSGGSTYYADSVKGRFTISRDNAKNTVYLQMNSLKPEHTAVDYCAAFSAVDSPLDYWGQGTQVTVSS | low polyreactivity
35 | QVQLVESGGGLVQAGGSLRLSCAASGSMFSVYAMGGYRQAPGKEMELVAAISRSGGSTYYADSVKGRFTISRDTAKNTVYLQMNSLKPEDTAVYYCAARLAGRGSSSSRVVRTGGYWGQGTQVTVSS | high polyreactivity
36 | QVQLVESGGGLVQAGGSLRLSCAASGSTFPYYAMGWYRQAPGKERELVAAISKSGGSTYYADSVKGRFTISRDNAKNTVYLQMNSLKPEDTAVYYCAAGPRYRYYSGWYDYWGQGTQVTVSS | high polyreactivity
37 | QVQLVESGGGLVQAGGSLRLSCAASGRTLSWYAMGWYRQAPGKEREFVAAITSSGASTYYADSVKGRFTISRDNAKNTVYLQMNSLKPEDTAVYYCAAEAVYVSSWYDEYYYFRYDYWGQGTQVTVSS | high polyreactivity
38 | QVQLVESGGGLVQAGGSLRLSCAASGRTFQEYAMGWYRQAPGKERELVADISDGGSTNYADSVKGRFTISRDNAKNTVYLQMNSLKPEDTAVYYCAADQYHGVGINFRSDYDYWGQGTQVTVSS | low polyreactivity
39 | QVQLVESGGGLVQAGGSLRLSCAASGFTFKYYAMGWYRQAPGKERELVAVISSSGGSTYYADSVKGRFTISRDNAKNTVYLQMNSLKPEDTAVYYCAAELVYRYYVKDADDYWGQGTQVTVSS | low polyreactivity
40 | QVQLVESGGGLVQGGGSLRLSCAASGRTFYRYVMGWYRQAPGKERELVADISRRGGRTYYADSVKGRFTISRDNAKNTVYLQMNSLKPEDTAVYYCAAGQLGDYWGLGTQVTVSS | high polyreactivity
41 | QVQLVESGGGLVQSGGSLRLSCAASGSIFNRYAMGWYRQAPGKERELVAAISARGGSTYYADSVKGRFTISRDNAKNTVYLQMNSLKPEDTAVYYCAARRQGDYYYWGQGTQVTVSS | high polyreactivity
42 | QVQLVESGGGLVQAGGSLRLSCAASGSIFGLYTMGWYRQAPGKERELVAAISSVGSTYYADSVKGRFTISRDNAKNTVYLQMNSLKPEDTAVYYCNVYSRTHYQTYTDDYWGQGTQVTVSS | high polyreactivity
43 | QVQLVESGGGLVQAGGSLRLSCAASGITSGNNALGWYRQAPGKERELVAALSWTGGSTYYADSVKGRFTISRDNAKNTVYLQMNSLKPEDTAVYYCAAKGLRYRDIDYDYWGQGTQVTVSS | low polyreactivity
